Laboratory results: PMC13223232, “Structural basis for TRF2-RAP1 recruitment by EBNA1 at the EBV origin of replication” (Scientific Reports, 2025)

T1: EBNA1 DNA binding domain (DBD) aa 401–607 (Epstein-Barr virus, UniProt P03211 401-607)
T1 construct: also called EBNA1 DBD; EBNA1 401–607; source: E. coli, purified (Ni-NTA, SEC); not shown: His6-SUMO, N-terminal, cleaved
T1 sequence: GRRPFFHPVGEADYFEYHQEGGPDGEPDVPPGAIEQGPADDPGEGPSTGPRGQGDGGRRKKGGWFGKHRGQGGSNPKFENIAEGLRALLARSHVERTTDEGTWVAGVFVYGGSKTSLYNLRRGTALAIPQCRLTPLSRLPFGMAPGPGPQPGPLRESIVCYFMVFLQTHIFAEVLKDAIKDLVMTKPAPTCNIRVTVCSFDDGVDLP

B1: GST-TRFH domain (amino acids 85–287) (domain or fragment, human, UniProt Q15554 85-287, looked up)
chain: AGEARLEEAVNRWVLKFYFHEALRAFRGSRYGDFRQIRDIMQALLVRPLGKEHTVSRLLRVMQCLSRIEEGENLDCSFDMEAELTPLESAINVLEMIKTEFTLTEAVVESSRKLVKEAAVIICIKNKEFEKASKILKKHMSKDPTTQKLRNDLLNIIREKNLAHPVIQNFSYETFQQKMLRFLESHLDDAEPYLLTMAKKALK
notes: also called TRF2 homodimerization domain; TRF2 dimerization domain; source: E. coli, purified to near homogeneity; not shown: GST, N-terminal, kept

Columns and labels:
[1] = biological target: T1, EBNA1 DNA binding domain (DBD) aa …; assay: native gel or EMSA; supershift of the ½ DS-EBNA1 complex by TRFH (no Myb domain); binding buffer lowered to 100 mM KCl, highest TRFH 10 µM (1000-fold stoichiometric excess); only a weak supershift under standard conditions (300 mM KCl); settings: both partners purified
[2] = biological target: B1; assay: as above; settings: both partners purified

| Binder | binding result [1] | binding result [2] |
| --- | --- | --- |
| B1 | binds |  |
| EBNA1 459–607 (domain or fragment, also called shorter EBNA1 459–607; core structured DBD; source: E. coli) RKKGGWFGKHRGQGGSNPKFENIAEGLRALLARSHVERTTDEGTWVAGVFVYGGSKTSLYNLRRGTALAIPQCRLTPLSRLPFGMAPGPGPQPGPLRESIVCYFMVFLQTHIFAEVLKDAIKDLVMTKPAPTCNIRVTVCSFDDGVDLP |  | binds |
